Paper PMC2199964

Biological target: Suc1 protein coupled to CNBr-Sepharose beads (UniProt P08463)
Experiment: pull-down

Sequence of Suc1 protein coupled to CNBr-Sepharose beads (P08463 whole entry): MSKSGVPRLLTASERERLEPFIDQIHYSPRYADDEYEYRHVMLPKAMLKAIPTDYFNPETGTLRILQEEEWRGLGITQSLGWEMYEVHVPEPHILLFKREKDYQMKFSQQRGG

percent of the protein removed from the extract by Suc1 beads: > 90%
Substance: Xenopus cyclin E, endogenous in interphase egg extract (natural protein)
